Data from patent publication US20220056137A1 (GIGAGEN, published 2022).
Where a chain is given by its changes, count along the chain named. Like-named read-outs stand apart in the source and are kept apart here.

B1: antibody A10 (antibody, V domains shown)
VH: QVQLVESGGGVVQPGRSLRLSCAASGFTFSSYGMHWVRQAPGKGLEWVAVIWYDGINKYYADSVKGRFTISRDNSKNTLYLQMNSLRAEDTAVYYCARDSTASPFDYWGQGTLVTVSS
VL: EIVMTQSPATLSLSPGERATLSCRASQSVSSSYLSWYQQKPGQAPRLLIYGASTRATGIPARFSGSGSGTDFTLTISSLQPEDFAVYYCQQDYNLPHTFGQGTKLEIK
notes: Tested as full-length mAb made in CHO cells; also called L10H10
B2: antibody A9 (antibody, V domains shown)
VH: B1 VH with Y53F, I56N, S100V, A102T, S103V
VL: B1 VL with I49M, H97Y
notes: Tested as full-length mAb made in CHO cells; also called L9H9
B3: antibody A14 (antibody, V domains shown)
VH: B1 VH with I56S, N57V, S100R, A102G, S103V
VL: B1 VL
notes: Tested as full-length mAb made in CHO cells; also called L14H14
B4: antibody A11 (antibody, V domains shown)
VH: QVQLVESGGGVVQPGRSLRLSCAASGFTFSSYGIHWVRQAPGKGLEWVAVIWSDGSNKFYADSVKGRFTISRDNSKNTLFLQMSSLRAEDTAVYYCARDIAAAIDYWGQGTLVTVSS
VL: AIQMTQSPSSLSASVGDRVTITCRASQGIRNDLGWYQQKPGKAPKLLIYAASSLQSGVPSRFSGSGSGTDFTLTISSLQPEDFATYYCLQDYNYPYTFGQGTKLEIK
notes: Tested as full-length mAb made in CHO cells; also called L11H11
B5: antibody A12 (antibody, V domains shown)
VH: QVQLVESGGGVVQPGRSLRLSCAASGFTFSSYGMHWVRQAPGKGLEWVAVIWYDGSNKSYADSVKGRFTFSRDNSKNTLYLQMNSLRAEDTAVYYCARDMDYFGLDVWGQGTTVTVSS
VL: B4 VL with A1D, L46R, D70E, D91H, Y92N, N93S, Y96R, L104V
notes: Tested as full-length mAb made in CHO cells; also called L12H12
B6: antibody A16 (antibody, V domains shown)
VH: B5 VH with S59Y, F70I, K76N, N77D, Y80F, M100F, Y102W, L105M
VL: B4 VL with A1D, L46R, D70E, D91H, Y92N, N93S, Y96R, L104V
notes: Tested as full-length mAb made in CHO cells; also called L16H16
B7: antibody A13 (antibody, V domains shown)
VH: QVQLQESGPGLVKPSETLSLTCTVSGGSISSYYWSWIRQPPGKGLEWIGYIHYSGSTKYNPSLKSRVTISLDTSKNQFSLKLSSVTAADTAVYYCARDRGIGAFDIWGQGTMVTVSS
VL: EIVMTQSPATLSLSPGERATLSCRASQSVSSSYLSWYQQKPGQAPRLLIYGASTRATGIPARFSGSGSGTDFTLTISSLQPEDFAVYYCQQDYNLITFGQGTRLEIK
notes: Tested as full-length mAb made in CHO cells; also called L13H13
B8: antibody A15 (antibody, V domains shown)
VH: QLQLQESGPGLVKPSETLSLTCTVSGGSFNRSNYYWGWIRQPPGKGLEWIGSIYYSGSTYYNPSLKSRLTISADTSKTQFSLKRNSVTAADTAVYYCAREDIVVVPAAQPPHFYFGMDVWGQGTTVTVSS
VL: B4 VL with A1D, L46R, D70E, D91H, Y92D, N93S, Y96L, Q100G, L104V
notes: Tested as full-length mAb made in CHO cells; also called L15H15
B9: antibody A17 (antibody, V domains shown)
VH: QVQLQESGPGLVKPSETLSLTCTVSGGSISGYSWSWIRQPPGKGLEWIGYIYYSGSTNNNPSLKSRVTISVDTSKNQFSLKLSSVTAADTAVYFCARDDGIAVAGYYFYYGLDVWGQGTTVTVSS
VL: B4 VL with A1D, L46R, D70E, D91H, Y92N, N93T, Y96W, L104V
notes: Tested as full-length mAb made in CHO cells; also called L17H17
B10: antibody A20 (antibody, V domains shown)
VH: B9 VH with G31S, S33Y, N59Y, F94Y, G100R, A104G, G105P, F108Y, L112M
VL: B4 VL with A1D, L46R, D70E, D91H, Y92N, N93S
notes: Tested as full-length mAb made in CHO cells; also called L20H20
B11: antibody A18 (antibody, V domains shown)
VH: QVQLVESGGGVVQPGRSLRLSCAASGFTFSSFALHWVRQAPGKGLEWVAVLWYDGISKYYADSVKGRFTISRDNSKNTLYLQMNSLRAEDTAVYYCARDVVGVHDAFDIWGQGTMVTVSS
VL: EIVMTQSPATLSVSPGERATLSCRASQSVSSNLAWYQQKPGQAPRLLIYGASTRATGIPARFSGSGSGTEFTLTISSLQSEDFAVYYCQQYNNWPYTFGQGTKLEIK
notes: also called L18H18
B12: antibody A1 (antibody, V domains shown)
VH: QVQLVQSGAEVKKPGASVKVSCKASGFTFTSYDINWVRQATGQGLEWMGWMHPNSGITGYAQKFQGRVTMTRNTSISTAYMELSSLSSEDTAVYFCARYYYVSGSYDYWGQGTLVTVSS
VL: B1 VL with R24W, H97Y
notes: Tested as full-length mAb made in CHO cells; also called L1H1
B13: antibody A23 (antibody, V domains shown)
VH: QVQLVQSGAEVKKPGASVKVSCKASGYTFTNYGISWVRQAPGQGLEWMGWISAYNGNTNYEQKVQGRVTMTTDTSTSTAYMELRSLRSDDTAVYYCARSLTGLFDYWGQGTLVTVSS
VL: DIQMTQSPSSLSASVGDRVTITCRASQGIRNDLGWYQQKPGKAPKRLIYAASSLQSGVPSRFSGSGSGTEFTLTISSLQPEDFATYYCLQHNSYPMFTFGQGTKLEIK
B14: antibody A2 (antibody, V domains shown)
VH: EVQLVESGGGLVQPGGSLRLSCAASGFTFSRYDMSWVRQAPGKGLEWVSTISGSGGSTYYADSVKGRFTISRDNSKTTLYLQMISLRAEDTAVYYCAKAGFTMIVVAFDYWGQGTLVTVSS
VL: DIQMTQSPSSLSASVGDRVTITCRASQGISNYLAWFQQKPGKAPKSLIYAASSLQSGVPSKFSGSGSGTDFTLTISSLQPEDFATYYCQQYNSYPYTFGQGTKLEIK
notes: Tested as full-length mAb made in CHO cells; also called L2H2
B15: antibody A3 (antibody, V domains shown)
VL: B4 VL with G28D, K39Q, Y96P, L104V
V domain: QVQLVESGGGVVQPGRSLRLSCAASGFTFSNYGMHWVRQAPGKGLEWVAVIWFDGNTKYYTDSVKGRFTISRDNSKNTLYLQMNSLRAEDTAVYYCARDTTMVPMDVWGQGTTATVSS
notes: Tested as full-length mAb made in CHO cells; also called L3H3
B16: antibody A6 (antibody, V domains shown)
VH: B1 VH with Y53F, I56S, S100K, A102V, Y107I, L113M
VL: B7 VL with I96F, Q100P, R103K, L104V, E105D
notes: Tested as full-length mAb made in CHO cells; also called L6H6
B17: antibody A19 (antibody, V domains shown)
VH: QVQLVESGGGVVQPGRSLRLSCVASGFTFSSYGMHWVRQAPGKGLEWVAVIWYDGSNKFYIDSVKGRFTISRDNSKNTLYLQMNSLRAEDTAVYYCARGGAVAGTSWYYYYGMDVWGQGTTVTVSS
VL: DIQLTQSPSFLSASVGDRVTITCRASQGISSYLAWYQQKPGKAPKLLIYDASTLQSGVPSRFSGSGSGTEFTLTISSLQPEDFAIYYCQQLNTYPLTFGGGTKVEIK
notes: Tested as full-length mAb made in CHO cells; also called L19H19
B18: antibody A21 (antibody, V domains shown)
VH: B17 VH with V23A, I61E, A101V, V102N, A103W, G104N, T105D, S106V, W107G
VL: B17 VL with S9P, D50A, I85T, T93S, L96F, G100Q, V104L
notes: Tested as full-length mAb made in CHO cells; also called L21H21

Key:
[1] = target: PD-L1 expressed on CHO cells (human, UniProt Q9NZQ7 19-290); test: cell-based or functional assay
cyno PD-L1 = target: T1, cyno PD-L1 (cyno); test: BLI (Octet), antibody on AHC biosensor, cyno PD-L1 as analyte
T1 construct: Soluble analyte in BLI
Procedure: For BLI, antibodies were loaded onto an Anti-Human IgG Fc (AHC) biosensor using the Octet Red96 system (ForteBio). Loaded biosensors were dipped into antigen dilutions beginning at 300 nM, with 6 serial dilutions at 1:3. Kinetic analysis was performed using a 1:1 binding model and global fitting.

[2] = target: T2, human PD-L1 protein (soluble) (human, UniProt Q9NZQ7 19-239); test: SPR, mAb captured on anti-human IgG Fc, PD-L1 as analyte;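 as to koff: array SPR with mAb supernatants captured at several densities, PD-L1 injected for 5 min then 15 min dissociation, non-regenerative kinetic series, double-referenced against interspot surface and blank injection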;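 as to kon: array SPR with mAb supernatants captured at several densities, PD-L1 injected for 5 min then 15 min dissociation, non-regenerative kinetic series, double-referenced against interspot surface and blank injection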
T2 construct: also called PD-L1 (R&D Systems); His-tagged PD-L1 protein
Procedure: (§1) The surface was then deactivated with 1 M ethanolamine pH 8.5 (Carterra Inc.). Running buffer used for the lawn immobilization was HBS-EPC (10 mM HEPES, 150 mM NaCl, 3 mM EDTA, 0.05% Tween 20, pH 7.4; Teknova).
(§2) The sensor chip was then transferred to a continuous flow microspotter (CFM; Carterra Inc.) for array capturing. The mAb supernatants were diluted 50-fold (3-10 mg/mL final concentration) into HBS-EPC with 1 mg/mL BSA. The samples were each captured twice with 15-minute and 4-minute capture steps on the first and second prints, respectively, to create multiple densities, using a 65 mL/min flow rate. The running buffer in the CFM was also HBS-EPC.
(§3) Next, the sensor chip was loaded onto an SPR reader (MX-96 system; Ibis Technologies) for the kinetic analysis. […] PD-L1 injections were 5 minutes with a 15-minute dissociation at 8 mL/second in a non-regenerative kinetic series. An injection of the goat anti-Human IgG Fc capture antibody at 75 mg/mL was injected at the end of the series to verify the capture level of each mAb. Binding data was double referenced by subtracting an interspot surface and a blank injection and analyzed for ka (on-rate), kd (off-rate), and KD (affinity) using the Kinetic Interaction Tool software (Carterra Inc.).

rhPD-L1-Fc = target: T3, rhPD-L1-Fc (human, UniProt Q9NZQ7 19-239, limits assumed); test: competition ELISA: plate-bound rhPD-L1-Fc, antibody titrated, competitor rhCD80-His detected
T3 construct: Recombinant human PD-L1-Fc coated on ELISA plates; not shown: Fc part

[3] = target: T2, human PD-L1 protein (soluble); test: SPR, mAb captured on anti-human IgG Fc, PD-L1 as analyte; remark: listed apart in the source;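 as to koff: array SPR with mAb supernatants captured at several densities, PD-L1 injected for 5 min then 15 min dissociation, non-regenerative kinetic series, double-referenced against interspot surface and blank injection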;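 as to kon: array SPR with mAb supernatants captured at several densities, PD-L1 injected for 5 min then 15 min dissociation, non-regenerative kinetic series, double-referenced against interspot surface and blank injection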
Procedure: as §1, §2, §3

Sequence of PD-L1 expressed on CHO cells (Q9NZQ7 19-290 limits assumed): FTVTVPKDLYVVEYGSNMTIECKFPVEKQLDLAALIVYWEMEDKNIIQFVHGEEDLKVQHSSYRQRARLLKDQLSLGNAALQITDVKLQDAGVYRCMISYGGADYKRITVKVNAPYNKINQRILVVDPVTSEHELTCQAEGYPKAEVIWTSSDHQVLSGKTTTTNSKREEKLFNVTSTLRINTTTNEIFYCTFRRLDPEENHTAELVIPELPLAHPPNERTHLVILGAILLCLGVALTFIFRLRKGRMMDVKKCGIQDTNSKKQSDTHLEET
T3 sequence (Q9NZQ7 19-239 limits assumed): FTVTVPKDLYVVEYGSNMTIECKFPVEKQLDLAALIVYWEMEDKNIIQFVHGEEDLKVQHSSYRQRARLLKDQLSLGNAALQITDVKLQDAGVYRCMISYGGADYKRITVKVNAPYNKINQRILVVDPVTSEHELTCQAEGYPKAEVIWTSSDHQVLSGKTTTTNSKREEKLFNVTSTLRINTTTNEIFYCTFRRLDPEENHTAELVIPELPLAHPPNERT
T2 sequence (Q9NZQ7 19-239 limits assumed): as above

Binder	Promega assay antagonist (EC50, ug/mL) [1] [µg/mL]	Kd (cyno PD-L1) [nM]	Kd [2] [nM]	koff [2] [s⁻¹]	kon [2] [M⁻¹ s⁻¹]	EC50 (rhPD-L1-Fc) [µg/mL]	Kd [3] [nM]
B1	0.27	27.4	40.9	0.018	440000	2.24	42
B2	0.28	20.9	26.2	0.0055	210000	1.49	26
B3	1.23	57.7	146	0.038	260000	0.6	148
B4	0.158	17.7	64.7	0.011	170000	0.56	66
B5	3.13	75.9	81.3	0.013	160000	–	80
B6	–	532	250	0.035	140000	0.64	246
B7	1.12	101	126	0.039	310000	0.6	124
B8	0.55	–	227	0.022	97000	–	227
B9	2.25	762	335	0.077	230000	–	335
B10	–	–	688	0.11	160000	–	675
B11	0.088	–	438	0.035	80000	–	442
B12	0.0415	0.31	0.13	0.00013	1e+06	0.4	0.13
B13	9.8	–	–	–	–	–	–
B14	0.042	5.2	3.45	0.0038	1.1e+06	0.87	3.5
B15	0.12	8.3	5.14	0.0019	370000	0.99	5
B16	0.111	–	15.8	0.0049	310000	2.62	16
B17	–	–	565	0.0035	6200	–	567
B18	–	–	867	0.013	15000	–	860
